Test results reported in patent US20080044405A1 (Harvard, published 2008).

Key:
[1] = target: T1, HLA-DR1 (soluble, produced by Drosophila S2 cell lines) (human); test: fluorescence polarization, DR1-CLIP-AlexaFluor488 0.1 uM at 37 C in the presence of 100 uM K2PdCl4, no DM, no excess HA peptide
[2] = target: T1, HLA-DR1 (soluble, produced by …); test: fluorescence polarization, DR1-CLIP-AlexaFluor488 0.1 uM at 37 C in the presence of 100 uM cisplatin, no DM, no excess HA peptide
[3] = target: T1, HLA-DR1 (soluble, produced by …); test: fluorescence polarization, DR1-CLIP-AlexaFluor488 0.1 uM at 37 C with DM (0.1 uM) and excess unlabeled HA peptide (100 uM), no metal
[4] = target: T1, HLA-DR1 (soluble, produced by …); test: fluorescence polarization, DR1-CLIP-AlexaFluor488 0.1 uM at 37 C in the presence of 100 uM K2PtCl4, no DM, no excess HA peptide
[5] = target: T1, HLA-DR1 (soluble, produced by …); test: fluorescence polarization, DR1-CLIP-AlexaFluor488 0.1 uM at 37 C in the presence of 100 uM KAuCl4, no DM, no excess HA peptide
[6] = target: T1, HLA-DR1 (soluble, produced by …); test: fluorescence polarization, DR1-CLIP-AlexaFluor488 0.1 uM at 37 C without DM, with excess unlabeled HA peptide (100 uM), no metal (intrinsic dissociation)

- t1/2 of CLIP dissociation [1]: 1.59 h
- t1/2 of CLIP dissociation [2]: 4.34 h
- t1/2 of CLIP dissociation [3]: 8.66 h
- t1/2 of CLIP dissociation [4]: 3.05 h
- t1/2 of CLIP dissociation [5]: 2.76 h
- t1/2 of CLIP dissociation [6]: 94.6 h
B1: Alexa-Fluor 488-labeled CLIP peptide (peptide)
peptide: CPVSKMRMATPLLMQA
modifications: Cys labelled with AlexaFluor 488 C5 maleimide
notes: an N-terminal Cys is added to CLIP(87-101); also called af-CLIP; CLIP-AlexaFluor488
